Data published in article PMC4377555, “A novel PKD2L1 C-terminal domain critical for trimerization and channel function” (Scientific Reports, 2015).
Where “and” joins values, the source holds several entries; their conditions need not be identical. Equal values may be shown once.

B1: Flag-tagged PKD2L1 ΔNT/T622X (M1-Y96 and T622-S805 double deletion) (domain or fragment, human, UniProt Q9P0L9-1 97-621, looked up)
chain: IKTTLRELLVYIVFLVDICLLTYGMTSSSAYYYTKVMSELFLHTPSDTGVSFQAISSMADFWDFAQGPLLDSLYWTKWYNNQSLGHGSHSFIYYENMLLGVPRLRQLKVRNDSCVVHEDFREDILSCYDVYSPDKEEQLPFGPFNGTAWTYHSQDELGGFSHWGRLTSYSGGGYYLDLPGSRQGSAEALRALQEGLWLDRGTRVVFIDFSVYNANINLFCVLRLVVEFPATGGAIPSWQIRTVKLIRYVSNWDFFIVGCEVIFCVFIFYYVVEEILELHIHRLRYLSSIWNILDLVVILLSIVAVGFHIFRTLEVNRLMGKLLQQPNTYADFEFLAFWQTQYNNMNAVNLFFAWIKIFKYISFNKTMTQLSSTLARCAKDILGFAVMFFIVFFAYAQLGYLLFGTQVENFSTFIKCIFTQFRIILGDFDYNAIDNANRILGPAYFVTYVFFVFFVLLNMFLAIINDTYSEVKEELAGQKDELQLSDLLKQGYNKTLLRLRLRKERVSDVQKVLQGGEQEIQFEDF
notes: PKD2L1, human, M1-Y96 and T622-S805 deleted; source: HeLa cells, transfected, in lysate; not shown: Flag, N-terminal, kept
B2: human PKD2L1 over-expressed from pcDNA3.1(+) (natural protein, UniProt Q9P0L9-1 1-805, looked up)
chain: MNAVGSPEGQELQKLGSGAWDNPAYSGPPSPHGTLRVCTISSTGPLQPQPKKPEDEPQETAYRTQVSSCCLHICQGIRGLWGTTLTENTAENRELYIKTTLRELLVYIVFLVDICLLTYGMTSSSAYYYTKVMSELFLHTPSDTGVSFQAISSMADFWDFAQGPLLDSLYWTKWYNNQSLGHGSHSFIYYENMLLGVPRLRQLKVRNDSCVVHEDFREDILSCYDVYSPDKEEQLPFGPFNGTAWTYHSQDELGGFSHWGRLTSYSGGGYYLDLPGSRQGSAEALRALQEGLWLDRGTRVVFIDFSVYNANINLFCVLRLVVEFPATGGAIPSWQIRTVKLIRYVSNWDFFIVGCEVIFCVFIFYYVVEEILELHIHRLRYLSSIWNILDLVVILLSIVAVGFHIFRTLEVNRLMGKLLQQPNTYADFEFLAFWQTQYNNMNAVNLFFAWIKIFKYISFNKTMTQLSSTLARCAKDILGFAVMFFIVFFAYAQLGYLLFGTQVENFSTFIKCIFTQFRIILGDFDYNAIDNANRILGPAYFVTYVFFVFFVLLNMFLAIINDTYSEVKEELAGQKDELQLSDLLKQGYNKTLLRLRLRKERVSDVQKVLQGGEQEIQFEDFTNTLRELGHAEHEITELTATFTKFDRDGNRILDEKEQEKMRQDLEEERVALNTEIEKLGRSIVSSPQGKSGPEAARAGGWVSGEEFYMLTRRVLQLETVLEGVVSQIDAVGSKLKMLERKGWLAPSPGVKEQAIWKHPQPAPAVTPDPWGVQGGQESEVPYKREEEALEERRLSRGEIPTLQRS
notes: PKD2L1, human, full-length cDNA in pcDNA3.1(+), no tag named for this experiment; also called TRPP3; source: HEK293T and HeLa cells, transfected, in lysate
B3: Flag-tagged human PKD2L1 WT (natural protein, UniProt Q9P0L9-1 1-805, looked up)
chain: B2 chain
notes: PKD2L1, human, full-length cDNA in pcDNA3.1(+), Flag inserted 5' of the coding region; also called Flag-PKD2L1; source: HeLa cells, transfected, in lysate; not shown: Flag, N-terminal, kept
B4: GFP-C1 (GFP fused to PKD2L1 C1, K575-T622) (domain or fragment, human, UniProt Q9P0L9-1 575-622, looked up)
chain: KDELQLSDLLKQGYNKTLLRLRLRKERVSDVQKVLQGGEQEIQFEDFT
notes: PKD2L1, human, domain C1 K575-T622 (48 amino acids), in pET28a(+) with an upstream GFP gene; source: E. coli BL21 (DE3), purified (Ni-NTA); not shown: GFP, N-terminal, kept
B5: Flag-tagged PKD2L1 ΔNT (deletion of M1-Y96) (domain or fragment, human, UniProt Q9P0L9-1 97-805, looked up)
chain: IKTTLRELLVYIVFLVDICLLTYGMTSSSAYYYTKVMSELFLHTPSDTGVSFQAISSMADFWDFAQGPLLDSLYWTKWYNNQSLGHGSHSFIYYENMLLGVPRLRQLKVRNDSCVVHEDFREDILSCYDVYSPDKEEQLPFGPFNGTAWTYHSQDELGGFSHWGRLTSYSGGGYYLDLPGSRQGSAEALRALQEGLWLDRGTRVVFIDFSVYNANINLFCVLRLVVEFPATGGAIPSWQIRTVKLIRYVSNWDFFIVGCEVIFCVFIFYYVVEEILELHIHRLRYLSSIWNILDLVVILLSIVAVGFHIFRTLEVNRLMGKLLQQPNTYADFEFLAFWQTQYNNMNAVNLFFAWIKIFKYISFNKTMTQLSSTLARCAKDILGFAVMFFIVFFAYAQLGYLLFGTQVENFSTFIKCIFTQFRIILGDFDYNAIDNANRILGPAYFVTYVFFVFFVLLNMFLAIINDTYSEVKEELAGQKDELQLSDLLKQGYNKTLLRLRLRKERVSDVQKVLQGGEQEIQFEDFTNTLRELGHAEHEITELTATFTKFDRDGNRILDEKEQEKMRQDLEEERVALNTEIEKLGRSIVSSPQGKSGPEAARAGGWVSGEEFYMLTRRVLQLETVLEGVVSQIDAVGSKLKMLERKGWLAPSPGVKEQAIWKHPQPAPAVTPDPWGVQGGQESEVPYKREEEALEERRLSRGEIPTLQRS
notes: PKD2L1, human, deletion of the N-terminus M1-Y96; also called Flag-ΔNT; Ctrl (ΔNT); source: HeLa or HEK cells, transfected, in lysate; not shown: Flag, N-terminal, kept
B6: purified PKD2L1 C-terminus (CT, E566-S805) (domain or fragment, human, UniProt Q9P0L9-1 566-805, looked up)
chain: EVKEELAGQKDELQLSDLLKQGYNKTLLRLRLRKERVSDVQKVLQGGEQEIQFEDFTNTLRELGHAEHEITELTATFTKFDRDGNRILDEKEQEKMRQDLEEERVALNTEIEKLGRSIVSSPQGKSGPEAARAGGWVSGEEFYMLTRRVLQLETVLEGVVSQIDAVGSKLKMLERKGWLAPSPGVKEQAIWKHPQPAPAVTPDPWGVQGGQESEVPYKREEEALEERRLSRGEIPTLQRS
notes: PKD2L1, human, C-terminus E566-S805; the methods describe only GFP-C1 in pET28a(+) and Ni-NTA; the DLS buffer holds 250 mM imidazole; source: E. coli, purified

Columns and labels:
[1] = molecular target: the molecule itself; assay: non-reducing SDS-PAGE with Western blot; lysates of transfected HEK or HeLa cells, SDS loading buffer without reducing reagents, on ice 5 min, 8% gel; some samples also under reducing condition or with 10 mM NEM in the lysis buffer
[2] = molecular target: the molecule itself; assay: native gel or EMSA; BN-PAGE with Western blot of HeLa cell lysates (NativePAGE Sample Prep Kit, Coomassie G-250, 3-12% BisTris gels), non-denaturing
[3] = molecular target: the molecule itself; assay: native gel or EMSA; BN-PAGE of purified GFP fusion proteins, Coomassie blue staining
[4] = molecular target: the molecule itself; assay: dynamic light scattering; Malvern Zetasizer Nano ZS, 25°C; 50 mM NaH2PO4, 300 mM NaCl, 250 mM imidazole, pH 8.0; 0.4 mg/ml; oligomeric state from the apparent hydrodynamic diameter

Protein	stoichiometry N [1]	stoichiometry N [2]	other results
B1	3	–	–
B2	2 and 3 and 4	–	–
B3	–	3 and 2	–
B4	–	–	stoichiometry N [3]: 3
B5	–	3	–
B6	–	–	stoichiometry N [4]: 3
